From patent US20250215073A1 (TOKUSHIMA UNIVERSITY, published 2025)

B1: IR700-labeled humanized anti-c-KIT (12A8) IgG1 antibody (antibody, V domains shown)
VH: QVQLVQSGAEVKKPGASVKVSCKASGYSFSNYYMHWVRQAPGQRLEWMGYISCFNGATTYNQKFRGRVTITRDTSASTAYMELSSLRSEDTAVYYCARRTAGAMDYWGQGTLVTVSS
VL: DIVMTQTPLSLSVTPGQPASISCRSSQSLANSYGNTYLSWYLQKPGQSPQLLIYGISNRFSGVPDRFSGSGSGTDFTLKISRVEAEDVGVYYCLQGTHQPYTFGGGTKVEIKR
modifications: IR700 (IRDye700DX) conjugated, residues not stated
notes: The antibody was purified on protein A before labeling; also called Humanized Whole IgG
B2: IR700-labeled mouse anti-c-KIT (12A8) antibody (whole IgG) (antibody, V domains shown)
VH: EVQLQQSGPELVKTGTSVKISCKASGYSFSNYYMHWVKQSHGKSLEWIGYISCFNGATTYNQKFRGKATFTVDTSSSTTYMQFNSLTSEDSAVYFCARRTAGAMDYWGQGTSVTVSS
VL: EVVVTQTPLSLPVSFGDQVSISCRSSQSLANSYGNTYLSWYLHKPGQSPQLLIYGISNRFSGVPDRFSGSGSGTEFTLEISTIKPEDLGMYYCLQGTHQPYTFGGGTKLEIKR
modifications: IR700 (IRDye700DX) conjugated, residues not stated
notes: Mouse IgG1 12A8 conjugated with IRDye700DX; also called IR700-12A8 (whole IgG); IR700-12A8 Whole IgG
B3: IR700-labeled humanized anti-c-KIT (12A8) Fab antibody (Fab, V domains shown)
VH: B1 VH
VL: B1 VL
modifications: IR700 (IRDye700DX) conjugated, residues not stated
notes: The Fab was purified on Kan Cap G before labeling; also called Humanized Fab
B4: humanized anti-c-KIT (12A8) IgG1 antibody (antibody, V domains shown)
VH: B1 VH
VL: B1 VL
notes: Human IgG1 / kappa, tested in the EIA as CHO-K1 culture supernatant; also called humanized c-KIT (12A8) IgG1; humanized anti-c-KIT (12A8) antibody (whole IgG)
B5: humanized anti-c-KIT (12A8) Fab antibody (Fab, V domains shown)
VH: B1 VH
VL: B1 VL
notes: Recombinant Fab, tested in the EIA as CHO-K1 culture supernatant; also called Fab fragment of the humanized anti-c-KIT (12A8) antibody

Key:
human c-KIT = target: T1, human c-KIT (human, UniProt P10721 26-976); assay: flow cytometry on fixed GIST-T1 cells, 10 µg antibody
T1 construct: whole, on cells; Endogenous c-KIT of the GIST cell line GIST-T1 and the small cell lung cancer line SY; also called c-KIT on GIST-T1 cells; c-KIT on SCLC cell line SY
T1 sequence (P10721 26-976): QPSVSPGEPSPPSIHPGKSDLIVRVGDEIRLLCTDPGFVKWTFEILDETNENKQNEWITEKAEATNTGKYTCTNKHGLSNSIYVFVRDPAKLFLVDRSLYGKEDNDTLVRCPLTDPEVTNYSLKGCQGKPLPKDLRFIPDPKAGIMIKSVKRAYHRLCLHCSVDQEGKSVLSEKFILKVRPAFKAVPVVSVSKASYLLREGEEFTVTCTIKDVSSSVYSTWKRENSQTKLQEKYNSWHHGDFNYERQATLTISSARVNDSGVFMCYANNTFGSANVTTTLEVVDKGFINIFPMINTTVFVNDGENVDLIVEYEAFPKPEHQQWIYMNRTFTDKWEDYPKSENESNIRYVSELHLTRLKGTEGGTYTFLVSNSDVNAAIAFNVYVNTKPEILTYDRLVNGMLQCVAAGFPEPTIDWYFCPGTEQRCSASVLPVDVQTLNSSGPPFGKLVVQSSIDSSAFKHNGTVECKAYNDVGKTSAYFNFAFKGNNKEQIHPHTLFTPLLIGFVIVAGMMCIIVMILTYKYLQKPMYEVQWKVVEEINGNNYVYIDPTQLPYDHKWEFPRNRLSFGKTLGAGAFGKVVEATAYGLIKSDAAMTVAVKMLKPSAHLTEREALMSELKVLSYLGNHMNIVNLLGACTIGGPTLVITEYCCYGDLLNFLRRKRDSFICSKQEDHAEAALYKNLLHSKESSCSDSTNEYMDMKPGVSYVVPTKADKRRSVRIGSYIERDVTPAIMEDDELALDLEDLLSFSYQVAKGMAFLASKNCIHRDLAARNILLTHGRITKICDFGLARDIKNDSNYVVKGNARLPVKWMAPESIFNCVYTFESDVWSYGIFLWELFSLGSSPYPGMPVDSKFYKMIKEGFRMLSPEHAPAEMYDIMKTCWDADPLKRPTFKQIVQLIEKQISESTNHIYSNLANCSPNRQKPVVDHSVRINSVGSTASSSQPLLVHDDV
Method: GIST-T1 cells were collected with trypsin (on ice), and 1×10⁶ cells were dispensed into 1.5 mL tubes. The cells were washed three times with 1 mL of PBS-BSA-Azide. To each tube, 1 mL of 4% paraformaldehyde cooled to 4° C. was added and mixed by gentle pipetting on ice. The tubes were returned to room temperature and left to stand for 15 minutes (the subsequent process was carried out at room temperature). The cells were washed three times with 1 mL of PBS-BSA-Azide.
To GIST-T1 cell pellets, 100 μL of each antibody solution prepared with PBS-BSA-Azide was added and mixed. The mixtures were prepared to contain 10 μg of the IR700-labeled mouse anti-c-KIT (12A8) antibody, 10 μg of the IR700-labeled humanized anti-c-KIT (12A8) IgG1 antibody, and 10 μg of the IR700-labeled humanized anti-c-KIT (12A8) Fab antibody, respectively. Each mixture was covered with aluminum foil in the dark and allowed to react at room temperature (from 20° C. to 25° C.) for 60 minutes (the subsequent process was carried out in the dark as much as possible). Washing was performed three times by adding 1 mL of PBS-BSA-Azide. After adding 500 μL of PBS-BSA-Azide and mixing, each mixture was passed through a filter (42-μm nylon mesh, AS ONE Corporation). Measurement was performed using FACS (CytoFLEX (Beckman Coulter)) with excitation at 638 nm and 712/25BP.

[1] = target: T2, FLT4-Fc (fusion product of the extracellular region of the human FLT4 protein and mouse antibody Fc) (human; mouse, UniProt P35916 25-775); assay: EIA, antigen solid-phased in 96-well plate, HRP anti-human Kappa detection
T2 construct: extracellular domain; Negative control antigen in the EIA
T2 sequence (looked up): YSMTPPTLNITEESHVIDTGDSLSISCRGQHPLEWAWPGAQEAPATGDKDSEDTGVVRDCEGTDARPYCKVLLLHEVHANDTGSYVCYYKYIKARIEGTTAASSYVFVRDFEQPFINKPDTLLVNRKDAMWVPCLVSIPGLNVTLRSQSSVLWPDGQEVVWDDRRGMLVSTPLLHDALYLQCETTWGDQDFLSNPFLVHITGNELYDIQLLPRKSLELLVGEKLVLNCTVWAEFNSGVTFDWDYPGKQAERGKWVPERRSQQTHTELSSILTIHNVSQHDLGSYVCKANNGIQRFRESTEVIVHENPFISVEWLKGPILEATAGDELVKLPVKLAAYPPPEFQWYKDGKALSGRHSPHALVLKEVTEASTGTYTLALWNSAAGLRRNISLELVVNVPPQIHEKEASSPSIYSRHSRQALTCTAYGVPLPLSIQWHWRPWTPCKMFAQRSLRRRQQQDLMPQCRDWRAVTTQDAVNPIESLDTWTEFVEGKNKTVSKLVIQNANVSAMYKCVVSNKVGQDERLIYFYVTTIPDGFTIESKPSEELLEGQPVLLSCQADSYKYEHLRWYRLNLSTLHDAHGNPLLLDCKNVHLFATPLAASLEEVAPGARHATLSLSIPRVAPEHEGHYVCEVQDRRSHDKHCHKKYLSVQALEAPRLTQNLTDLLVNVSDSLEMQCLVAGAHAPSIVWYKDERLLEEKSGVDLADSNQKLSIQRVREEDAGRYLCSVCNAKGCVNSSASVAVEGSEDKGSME
Excerpt: Since the antigen recognition site of the anti-c-KIT (12A8) antibody is the extracellular region of the human c-KIT protein, a fusion protein (c-KIT-Fc) of the c-KIT extracellular region and the Fc region of the mouse antibody was used as the antigen for EIA. A fusion product of the extracellular region of the human FLT4 protein and mouse antibody Fc (FLT4-Fc) was used as a negative control.
Each above was solid-phased in a 96-well plate, blocked with a BSA solution, washed, sufficiently dried, and then stored in a refrigerator until use. The humanized anti-c-KIT (12A8) IgG1 antibody-producing clone culture supernatant was diluted 2-fold to 64-fold and added to an antigen solid-phase plate and a negative control plate so as to perform a primary reaction. The same was performed for the humanized anti-c-KIT (12A8) Fab antibody. The primary reaction was carried out for one hour at room temperature, and then each well was washed with phosphate-buffered saline (PBS). The HRP-labeled anti-human Kappa chain antibody was added as a secondary antibody and reacted for 30 minutes at room temperature. Thereafter, each well was washed with PBS, and the substrate OPD (Sigma-Aldrich) was added to develop a color. IN sulfuric acid was added to stop the reaction, and the absorbance at 490 nm was measured.

Row | Binder | binding result (human c-KIT) | binding result [1]
1 | B1 | binds | –
2 | B2 | binds | –
3 | B3 | binds | –
4 | B4 | – | no binding
5 | B5 | – | no binding
